In a protein production outcome set (Wang et al. 2014) one finds protein production data, which are given here for 20 sequences.

The series can be described thus: label from the status in PepcDB records.
In the case of “MQYRIRRENEAPEAKNAGETLWERDIMREVLLSAYRDRRRERMWKNIWRAVSTLILVALIAGIFRKDEAALQLAGNTPHTAVVNLYGKIGNGVEDQVKKLKDGMEAAYKNPQAKAIVIRANSPGGSPVVSNTAFEEIRRLKAQHPGIPVYLVAEDMCASGCYYIAAAADKIYADPSSIVGSIGVIGSSFDATGLMEKIGVKRRVKIAGSNKGMGDPFSPETPEQSKIWEEMLTGIHGEFIKAVKTGRGGRLKFRQYPDVFSGRVYTGADALKVGLVDGLGNIYSVARDVVKAPDVVDYTPKDDFGRILGRRFGAELKASVSEALQAVRLEHHHHHH”, the protein production result was “not failed”.

“YAHLRAGALRRLLQAQRLLPTGVRFLVLEGYRPPQLQRRYFEEYAATMRAAHPDEAPDRIRELTSAYISPPEVAPHVSGGAVDLTLCGADGTELPLGTEVNATPEESEGACRTAAPNISVEARANRAVMDRALTAVGFVNYPTEWWHWSYGDR”: the protein production result was “failed”.

Take “MLWARLVGLARLEARALSKKERRSLLERLKPYYTRIPFSEKADLRLVKARTDSGEYEIITVDGVPCLFEWSDGRIYPTLQCLKAFGVDWLKGVVLVDKGAAIALAKGAHLMIPGVVGVEGSFTRGDVVAALYHETRTPVMVGVAEVDSSALEKLYREKARGRAVRRVHRLGDALWELAQEVGKRLS”: the protein production entry is on record as “not failed”.

For “MSHEQPVTVSVARTILPGYTRQANAWAHAGQELAREWPGYLGSGWVRNGVDSAEWHMLYRFADADSLQEWEDSEERRWWIDSARDMMETTRVERHTGIEGWFSRPGDVSVVVPETVVPPRWKQAISIFLPFFPLSLLANFLLHPLTQDWQLVLSVLLNIVILTPLMTYIFLPITTRLLQPWLQAKPRKRPR”, the protein production result is listed as “failed”.

As to “APLYIKVHEIDNTAIIVNDGGLPKGTVFSCGLVLEEDVPQGHKVALTDLNQGDEIVRYGEVIGFADETIKRGSWIREALVRMPAP”, the protein production entry is “not failed”.

On to “MADDDHIEAVLARLSRPQKLALVRGATDPEGTATGYLSGVEEAGIPPFRLVDGPLGIRAEGQRATAFPASIATAATFDPDLARQQGAAMGREAAALGQDALLAPGVNIIRVPHCGRNFEYLSEDPVHAGAVGAGLIDGIQSADVVATVKHFVANNQETHRTTVSTEVDERTLRELYLPPFRSAVDAGVGSVMTAYNRVNGTHMSDHGRLVGDVLKSEWGFNGYVVSDWYGLESTVGAANAGMDVEMPGVAAPGAAEAANSDTADDAEEFEWPDGIPDATRAGLFGDPLVEAIDSGEVPAERLDDMVRRVLGQMDRFGRLDGSRTAAEDGASDDQAGELDSQRHRDIAADVAARGTVLLDNDGVLPLADGADVAVIGPNIDEPKLGGGGSSETTPVHSVTPVAGIESRAEGAVTTAFGVPQIESVSLFDLLPFVGEDDDTDGTAADIAQQDPSLDDAVDAAAAADVAVVFVRDATTEARDRDSLALPGQQDDLVSAVAATNENTVVVVRSGGPVELPWREDVAAVLEQWYPGQADGDAAAAVLYGDRDPSGRLPVTFAPEGEYPTAGAERRYPGVDDEVHYDEDVFIGYRHFDDEDADPTYPFGHGHSYATFEYGDAEITGEWTVAVPVKNAADRPGREVIQAYVRPPSVDGVDRPRRELAGFEAVQLDADEQKTVALTLDDLAFSRYDPNSGWTVDTGTYTVEIGRSSRDIRTTVPVDR”, for which the protein production entry is on record as “failed”.

With “PVPGIRCRDAFSAASGIIDKMACVPELAVSEISAPRIVSSLAGDGHALFVANSMPARDMDLYAAPVAQKPLQVALNRGVSGIDGIISTAAGFSAGLGKPTTLLIGDISFLHDLNALCLLNHPWNPLIVIVLNNHGGSIFSFLPIASQTDRLDECFATPQNFSIESAARTFGIDYACPETNGDFTQLYAEALTTKKSLIIEIRSDREKNLLLHRSLKARLDPVFEKADC”, the protein production entry was “failed”.

Consider “MEHSSMPLWLSSFEEEIDTYIFISSRDNKLYLGILRTYDQHGNVFLTHCVEKIIVPEKNYFSDVYVGNLIIRGDNIAYFGSVDEEKYCKMFDYTIKNDNDEEHNNMDMIKNKKEYSSSENIILVYKPINHILKFIPENNADSSIFEN”, for which the protein production entry is “failed”.

On to “MSFADLGLSDKVLQAVTTAGYTEPTPIQAQAIPHVLARRDVLGIAQTGTGKTAAFTLPMLTMLETGRARARMPRTLILEPTRELAAQVEENFERYGTNHKLNVALIIGGVSFADQDAKLTRGTDVLIATPGRLLDHFERGKLLLTGVELLVIDEADRMLDMGFIPDIERIVKMVPFTRQTLFFSATMPPEIERLADMFLHNPQRVEVARPASTATTIEQRLVATGAEGHEKRKVLRHLIRSASELQNGIIFCNRKRDVAQLQRSLTSHGFNAAALHGDMDQRARMAALDGFRSGEVPLLVASDVAARGLDIPAVSHVFNFDVPHHPEDYVHRIGRTGRAGRSGQAFTLASRSDERSLSAIESLIGQPIAWLDGDLASVSDEVEGDEPRRRRGSRRAKETKGGEETKSGGRSTERSAAPASESPRSENRSRGGRRPAAERSRADAPRRDPVREPEPVAVVPSAPPAPPRELAREPVRSAPERARGERRPPRRDEDGETPVGLGSHVPAFLLKPTGFGKSK”, for which the protein production entry is reported as “failed”.

As for “MIRTAKLALVAAALSTTALSPLALAAPAPAQPAATASIAVPPIVYQQRVLANGMKVFTSRDTSTPNVSVQVWYGVGSKDDPQGRSGFAHLFEHLMFKATRNMPNETVDRLTEDVGGFNNASTWDDFTNYYEVVPANHLERLIWAEADRLKSLVIDEAVFASERDVVKEELRQRVLADPYGRFFALSIPQQSFAVHPYQRPGIGSIEELDAATVDDVRAFHRTYYRPDNAALIIVGNFDQTKLDAMIDKYFGSLTTPAGAIPKVTAVEPARTGPKTVNTYGPNVPLPALAITWLAPAAADKDAPALAVLDAILTAGKSSRLYDSLVYDQKIAQSVFSSAPNNAQPGLFYVGAIMAGGKTVAQGEAALRAQVARVRDGLVTPAELAEAKAGLLADAVRRREEIDGRGFAIGYALQTEGDAAAANSSLAKLQAVTAADIQRVARQYLADDRRTVINYLPEKDRPAGEKDATPPIPKVASVKYDGPITTLAPEAEREKPPAVAAPVPAVMPTPAEKTLANGLRVIVAKSSELPLITSTLTVKGGASSDPAGLAGTSSLTSELLTEGTATRSATQVARETEALGANLAAGSGWEAASLTLSVTANNADPAMAIMADVAQNPAFKTEELDRVRAETLDGLSVAFQRPGSLASFATSPVLYAGSAYGHVAGGTPGSLPKIKREDLAKTHAAYWRPDNAVLVVTGNLSPEAGFALAEKAFGGWKKPATPPPAPPAAPTGYQPRNVVIDLPGTGQAAVVLAKPAITRADPSYYQGVVANTVLGVGFSSRLNQEIRIKRGLSYGAGSSLTPQGQFGGFSARVQTKNPSAGEVISLTRAELSRLANEPASVGELAARKSVLVGGFGRDLGTSEGLAGILGNLAVYGVPLTEIQSYAAKVEAVTPEQVQAFAKAKLDPTQMSVIVAGDAKAMGEALAKVAPNATVIPAAKLDLDAPGLTQ”, the protein production entry was “failed”.

Consider “MGKPVTNEAKGVYVMSVLPNMPAAGRLEAGDRIAAIDGQPINTSEQIVSYVREKQAGDRVRVTFIRDRKQHEAELVLKPFPHHPNQIGLGVTLRTLEHHHHHH”, for which the protein production entry is “not failed”.

“MISTFALFWALCIVCIINMARYYSSLRVLLMILRDCDPLLYQYVDGGGFFTSHGQPSKQIRLVGYIYAQRYLDHHDPEFIRRCERVRGQFLLTTALCGLIVISLIAMMMWY”: the protein production entry is on record as “failed”.

For the sequence “MPNPRRIVFGDVHGHFDALTALFEAIAPNERDGVYFVGDLIDRGPESAKVVDFVMENKYHCLLGNHEQMMLDAVGGFNFSPQLLHAWIYSGGKSTLESYEHQIPQSHVDWMRNLPLYLDLGDVWLVHAGVDPRLPIEEQGEAQFCWIRDEFHRYPYPYFANKLIITGHTITFTFANVEPGKLVSGPGWLDIDTGAYHPKSGWLTALELNNQEVYQAHIFTNEVRRLPLEDAVVPLPPQNLHRLEHHHHHH”, the protein production result was “failed”.

“MGEYYHATVNGVVEYGAFVDLSEHVSGLIHESTYSGDPDLAVDDDVIVHLSAVRDNGDLSFEFVDPEEYRTEQRSHAYERTTADAVGLEHHHHHH”: the protein production result was “not failed”.

In the case of “MTKCGHSFCYKCIHQSLEDNNRCPKCNYVVDNIDHLYPNFLVNELILKQKQRFEEKRFKLDHSVSSTNGHRWQIFQDWLGTDQDNLDLANVNLMLELLVQKKKQLEAESHAAQLQILMEFLKVARRNKREEMSGLYSPVSEDSTVPQFEAPSPSHSSIIDSTEYSQPPGFSGSSQTKKQPWYNSTLASRRKRLTAHFEDLEQCYFSTRMSRISDDSRTASQLDEFQECLSKFTRYNSVRPLATLSYASDLYNGSSIVSSIEFDRDCDYFAIAGVTKKIKVYEYDTVIQDAVDIHYPENEMTCNSKISCISWSSYHKNLLASSDYEGTVILWDGFTGQRSKVYQEHEKRCWSVDFNLMDPKLLASGSDDAKVKLWSTNLDNSVASIEAKANVCCVKFSPSSRYHLAFGCADHCVHYYDLRNTKQPIMVFKGHRKAVSYAKFVSGEEIVSASTDSQLKLWNVGKPYCLRSFKGHINEKNFVGLASNGDYIACGSENNSLYLYYKGLSKTLLTFKFDTVKSVLDKDRKEDDTNEFVSAVCWRALPDGESNVLIAANSQGTIKVLELV”, the protein production result is recorded as “failed”.

Turning to “MGKINTDPAATSGIKVLDRAVSIMLAVAERPLSLTELCDVTNLPRATAHRLATALETHNILTRTSDGKWTIGAVLSSLGA”, the protein production result was “failed”.

Take “MVAVWSAVAALLGVLINNSLSLVIKDYTVQEWRLGIAGYNGAIVGMYWGDSIFSIMGLCLFLVTLLICLLIEFRLRALLIPKQLPILSLPAMVSILVMVFTISLFSFDTNHLLFTGAAEPVLQTYSREVAIILVVSAMAYQYPLATLQTLGISLTGGLVAQWLTGLNLYALVDLWAINLVLAYFSIKTLFLKHARLASLAATFNALLAWIIWYFWFITGLEQLSAPLLIPFIMSSLITLSLYRQYINHNLLQSELWRTFKLMLINRLRAKQCVAITGSGIRKGTLPDYPSGQWLDPKVPITSYTLAEFKASKRCRYLYWKASYDYYQQALTINKNNIDEQLDYLLNHYLSGLFTETVDSLFNTEQHPVYECYGSIKRLYCLDCAKQQAWPPIPLWSQRDLHCQHCSGLLKPQILAADENIDSECYQALQKNMMECGCLLVIGVPTITPVVSMIIENANANKIPIIFIGTIPFGYFVEEKDVQLTGDIAHWLAEINGFINLLHPLKWGCKWKK”: the protein production entry is listed as “failed”.

As to “MKEEAVRVIEEVLKQGRTAMVEYEAKQVLKAYGLPVPEEKLAKTLDEALEYAKEIGYPVVLKLMSPQILHKSDAKVVMLNIKNEEELKKKWEEIHENAKKYRPDAEILGVLVAPMLKPGREVIIGVTEDPQFGHAIMFGLGGIFVEILKDVTFRLVPITEKDARKMIQEIKAYPILAGARGEEPADIDAIVDMLLKVSKLVDDLKDYIKEMDLNPVFVYNKGEGAVIVDSRIILKPKD”, the protein production result is recorded as “not failed”.

With “MKLSCVIVSHNMKNYIGRCIDSVRTALADIRSLVGEAEIIVVDRGSTDGTANAARTAYADVTIVDVPFDAGWATAANKGACAATGETLLFVSPEVELLSGGLPRLLEHLETNPACAIAGGAVVSTSGALLHGPARFPGLLGKLAALTGLGSRFPRTMLDWTRYGGRNLDLPLEVDSVSFDYAVVKAAAFCKLGRFDARFHTAFADTDLCRRASRTMLPRPTVAFVPQARARAQDNFVLRDEVQAFDLHGTAVVRGRVRCEMLYVWKNYCILTSLANTTLELVGQACRYAMGLLPVIGCDKTARHSAAVLKETAQAALDTQLGSQYPTTPWLEHHHHHH”, the protein production entry was “failed”.

Regarding “MSVDDSADVVVVGAGPAGSAAAAWAARAGRDVLVIDTATFPRDKPCGDGLTPRAVAELHQLGLGKWLADHIRHRGLRMSGFGGEVEVDWPGPSFPSYGSAVARLELDDRIRKVAEDTGARMLLGAKAVAVHHDSSRRVVSLTLADGTEVGCRQLIVADGARSPLGRKLGRRWHRETVYGVAVRGYLSTAYSDDPWLTSHLELRSPDGAVLPGYGWIFPLGNGEVNIGVGALSTSRRPADLALRPLISYYTDLRRDEWGFTGQPRAVSSALLPMGGAVSGVAGSNWMLIGDAAACVNPLNGEGIDYGLETGRLAAELLDSRDLARLWPSLLADRYGRGFSVARRLALLLTFPRFLPTTGPITMRSTALMNIAVRVMSNLVTDDDRDWVARVWRGGGQLSRLVDRRPPFS”, the protein production entry is “failed”.
